# From US20180044422A1, “TREATING SOLID TUMOR BY TARGETING DECTIN-1 SIGNALING” (New York University, priority 2016, published 2018)
# T1: murine Dectin-1 (Mus musculus, UniProt Q6QLQ4)
# T1 construct: purchased InvivoGen fc-mdec1a
# T1 sequence (Q6QLQ4 71-244 limits assumed): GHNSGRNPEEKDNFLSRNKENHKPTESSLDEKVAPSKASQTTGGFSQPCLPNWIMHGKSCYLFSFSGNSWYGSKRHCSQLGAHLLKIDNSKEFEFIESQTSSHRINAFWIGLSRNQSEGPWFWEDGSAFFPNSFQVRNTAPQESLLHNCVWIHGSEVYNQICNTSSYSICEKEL
# T2: Dectin-1 IgG Fc (Mus musculus, UniProt Q6QLQ4)
# T2 construct: purchased InvivoGen fc-mdec1a
# T2 sequence (Q6QLQ4 71-244 limits assumed): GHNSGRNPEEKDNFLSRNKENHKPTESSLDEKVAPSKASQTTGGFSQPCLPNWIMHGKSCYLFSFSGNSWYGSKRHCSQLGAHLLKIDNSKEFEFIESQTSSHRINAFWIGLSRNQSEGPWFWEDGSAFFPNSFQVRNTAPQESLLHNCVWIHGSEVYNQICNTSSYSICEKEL
# Key:
# [1] = tested on: bone-marrow derived macrophages (BMDM); assay: Dectin-1 expression in bone-marrow derived macrophages; format: cell-based, mouse; conditions: cytokine added to day 8 BMDM cultures for 24h
# murine Dectin-1 = target: T1, murine Dectin-1; assay: Galectin-coated ELISA with murine Dectin-1 IgG Fc; format: binding; conditions: galectin-coated plates; Galectin-3/-4/-9 comparison at 2.5 μg/ml Dectin-1 IgG Fc
# Description: (§1) To investigate if Galectin-9 can bind with Dectin-1, Protein G-magnet beads (2 ml; Dynabeads) were loaded with Dectin-1 IgG Fc (1 mg) or control IgG Fc before washing and blocking. Subsequently, beads were incubated with recombinant Galectin-9 ([…]; R&D Systems) for 30 min, washed, and stained with PE-conjugated anti-Galectin-9 (Biolegend, San Diego Calif.). Galectin-9 specific staining was determined by flow cytometry. To investigate the interaction between Galectin-9 and Dectin-1 by ELISA, plates (Maxisorp, Nunc, St. Louis, Mo.) were coated with recombinant mouse Galectin-9 ([…]; R&D Systems, Minneapolis, Minn.), Galectin-3, or Galectin-4 (both […]; Biolegend) for 16 hours at 4° C., blocked with 1% BSA/PBS for 1 hour, and incubated with increasing doses of Dectin-1 IgG Fc or control IgG Fc for 2 hours. The Galectin-bound Dectin-1 IgG Fc was detected with anti-IgG-HRP. For affinity precipitation experiments, protein G-beads were loaded with Dectin-1 IgG Fc and were then incubated with the extract of 6 month old KC pancreata. Bead-bound precipitates were resuspended with loading buffer, resolved by SDS-PAGE under reduced conditions for western blotting using mAbs specific for Galectin-9. To determine whether Galectin-9 induces Dectin-1 signaling, the Dectin-1 reporter HEK293 cell line^16 (Invivogen) was treated with recombinant Galectin-9 (1-10 μg/ml; R&D Systems), d-Zymosan (1-10 μg/ml), or Curdlan (10-100 μg/ml; both Invivogen). Dectin-1 signaling was measured by detection of secreted embryonic alkaline phosphatase. In other experiments, WT and Dectin-1^−/− splenic macrophages were treated in vitro with recombinant Galectin-9 (10 ug/ml). Syk phosphorylation was measured by flow cytometry at 3 hours.
# (§2) Non-pathogen derived Dectin-1 ligands have not been well-characterized. […] Bead-IgG Fc complexes were incubated with recombinant Galectin-9 and then labeled with a fluorescently-conjugated αGalectin-9 mAb and tested for fluorescence by flow cytometry. […]
# Dectin-1 [2] = assay: Dectin-1 reporter HEK293 cell line (secreted embryonic alkaline phosphatase); format: cell-based; conditions: low and high doses (1-10 μg/ml)
# Description: as §1, with “To determine whether Galectin-9 induces Dectin-1 signaling, the Dectin-1 reporter HEK293 cell line^16 (Invivogen) was treated with recombinant Galectin-9 (1-10 μg/ml; R&D Systems), d-Zymosan (1-10 μg/ml), or Curdlan (10-100 μg/ml; both Invivogen).” left out, “In other experiments, WT and Dectin-1^−/− splenic macrophages were treated in vitro with recombinant Galectin-9 (10 ug/ml).” left out
# Dectin-1 [3] = assay: Syk phosphorylation in WT and Dectin-1-/- macrophages; format: cell-based, mouse; conditions: 10 ug/ml for 3 hours, WT vs Dectin-1-/- macrophages, flow cytometry
# Description: as §1, with “To determine whether Galectin-9 induces Dectin-1 signaling, the Dectin-1 reporter HEK293 cell line^16 (Invivogen) was treated with recombinant Galectin-9 (1-10 μg/ml; R&D Systems), d-Zymosan (1-10 μg/ml), or Curdlan (10-100 μg/ml; both Invivogen).” left out, “In other experiments, WT and Dectin-1^−/− splenic macrophages were treated in vitro with recombinant Galectin-9 (10 ug/ml).” left out
# human Dectin-1 = assay: Galectin-9-coated ELISA with human Dectin-1 IgG Fc; format: binding; conditions: Galectin-9 coated plates, increasing doses
# Sequence of human Dectin-1 (Q9BXN2 114-247 limits assumed): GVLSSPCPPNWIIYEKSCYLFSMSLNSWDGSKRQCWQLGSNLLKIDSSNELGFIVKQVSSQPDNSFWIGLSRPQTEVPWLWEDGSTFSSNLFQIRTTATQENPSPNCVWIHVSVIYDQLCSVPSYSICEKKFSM
# Description: (§3) To investigate if Galectin-9 can bind with Dectin-1, Protein G-magnet beads (2 ml; Dynabeads) were loaded with Dectin-1 IgG Fc (1 mg) or control IgG Fc before washing and blocking. Subsequently, beads were incubated with recombinant Galectin-9 ([…]; R&D Systems) for 30 min, washed, and stained with PE-conjugated anti-Galectin-9 (Biolegend, San Diego Calif.). Galectin-9 specific staining was determined by flow cytometry. To investigate the interaction between Galectin-9 and Dectin-1 by ELISA, plates (Maxisorp, Nunc, St. Louis, Mo.) were coated with recombinant mouse Galectin-9 ([…]; R&D Systems, Minneapolis, Minn.), Galectin-3, or Galectin-4 (both […]; Biolegend) for 16 hours at 4° C., blocked with 1% BSA/PBS for 1 hour, and incubated with increasing doses of Dectin-1 IgG Fc or control IgG Fc for 2 hours. The Galectin-bound Dectin-1 IgG Fc was detected with anti-IgG-HRP. […] Dectin-1 signaling was measured by detection of secreted embryonic alkaline phosphatase. […] Syk phosphorylation was measured by flow cytometry at 3 hours.
# as §2
# Dectin-1 IgG Fc = target: T2, Dectin-1 IgG Fc; assay: Protein G bead / flow cytometry Galectin-9-Dectin-1 binding; conditions: recombinant Galectin-9, flow cytometry
# Description: as §3, §2
molecule,measurement,setting,value
"IL-12: cytokine added to BMDM cultures (protein, UniProt P43431 23-215; P43432 23-335, looked up) Interleukin-12 subunit alpha: RVIPVSGPARCLSQSRNLLKTTDDMVKTAREKLKHYSCTAEDIDHEDITRDQTSTLKTCLPLELHKNESCLATRETSSTTRGSCLPPQKTSLMMTLCLGSIYEDLKMYQTEFQAINAALQNHNHQQIILDKGMLVAIDELMQSLNHNGETLRQKPPVGEADPYRVKMKLCILLHAFSTRVVTINRVMGYLSSA Interleukin-12 subunit beta: MWELEKDVYVVEVDWTPDAPGETVNLTCDTPEEDDITWTSDQRHGVIGSGKTLTITVKEFLDAGQYTCHKGGETLSHSHLLLHKKENGIWSTEILKNFKNKTFLKCEAPNYSGRFTCSWLVQRNMDLKFNIKSSSSSPDSRAVTCGMASLSAEKVTLDQRDYEKYSVSCQEDVTCPTAEETLPIELALEARQQNKYENYSTSFFIRDIIKPDPPKNLQMKPLKNSQVEVSWEYPDSWSTPHSYFSLKFFVRIQRKKEKMKETEEGCNQKGAFLVEKTSTEVQCKGGNVCVQAQDRYYNSSCSKWACVPCRVRS",Dectin-1 expression in BMDM,[1],did not influence Dectin-1 expression
"Galectin-4: recombinant Galectin-4 (Biolegend) coated on ELISA plates (protein, UniProt Q8K419 1-326, looked up) Galectin-4: MAYVPAPGYQPTYNPTLPYKRPIPGGLSVGMSVYIQGMAKENMRRFHVNFAVGQDDGADVAFHFNPRFDGWDKVVFNTMQSGQWGKEEKKKSMPFQKGKHFELVFMVMPEHYKVVVNGNSFYEYGHRLPVQMVTHLQVDGDLELQSINFLGGQPAAAPYPGAMTIPAYPAGSPGYNPPQMNTLPVMTGPPVFNPRVPYVGALQGGLTVRRTIIIKGYVLPTARNFVINFKVGSSGDIALHLNPRIGDSVVRNSFMNGSWGAEERKVAYNPFGPGQFFDLSIRCGMDRFKVFANGQHLFDFSHRFQAFQMVDTLEINGDITLSYVQI",binding of murine Dectin-1 IgG Fc on ELISA,murine Dectin-1,did not avidly bind
"Galectin-3: recombinant Galectin-3 (Biolegend) coated on ELISA plates (protein, UniProt P16110 2-264, looked up) Galectin-3: ADSFSLNDALAGSGNPNPQGYPGAWGNQPGAGGYPGAAYPGAYPGQAPPGAYPGQAPPGAYPGQAPPSAYPGPTAPGAYPGPTAPGAYPGQPAPGAFPGQPGAPGAYPQCSGGYPAAGPYGVPAGPLTVPYDLPLPGGVMPRMLITIMGTVKPNANRIVLDFRRGNDVAFHFNPRFNENNRRVIVCNTKQDNNWGKEERQSAFPFESGKPFKIQVLVEADHFKVAVNDAHLLQYNHRMKNLREISQLGISGDITLTSANHAMI",binding of murine Dectin-1 IgG Fc on ELISA,murine Dectin-1,did not avidly bind
"Galectin-9: recombinant Galectin-9 (R&D Systems), lectin identified as Dectin-1 ligand (protein) MALFSAQSPYINPIIPFTGPIQGGLQEGLQVTLQGTTKSFAQRFVVNFQNSFNGNDIAFHFNPRFEEGGYVVCNTKQNGQWGPEERKMQMPFQKGMPEFELCFLVQRSEFKVMVNKKFVQYQHRVPYHLVDTIAVSGCLKLSFITFQNSAAPVQHVFSTVQFSQPVQFPRTPKGRKQKTQNFRPAHQAPMAQTTIHMVHSTPGQMFSTPGIPPVVYPTPAYTIPFYTPIPNGLYPSKSIMISGNVLPDATRFHINLRCGGDIAFHLNPRFNENAVVRNTQINNSWGQEERSLLGRMPFSRGQSFSVWIICEGHCFKVAVNGQHMCEYYHRLKNLQDINTLEVAGDIQLTHVQT",Dectin-1 activation (NF-κB signaling) in reporter cells,Dectin-1 [2],induced NF-κB signaling
same,Syk phosphorylation,Dectin-1 [3],activated Syk in a Dectin-1-dependent manner
same,binding of murine Dectin-1 IgG Fc on ELISA,murine Dectin-1,dose-dependent manner
same,binding of human Dectin-1 IgG Fc on ELISA,human Dectin-1,dose-dependent manner
same,binding to bead-bound Dectin-1 IgG Fc,Dectin-1 IgG Fc,avidly ligated
